Test results taken from the supplement of paper PMC12042874.
± gives the uncertainty stated by the source.

Assay: amyloid nucleation score (Sup35N fusion, yeast selection) (log enrichment); library NNK2; higher = more nucleation; inactive = no reads after selection
Method in brief: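 Growth for 7 days at 30°C on medium lacking adenine and uracil followed a 24-hour induction with 100 μM copper sulfate of psi-negative yeast expressing peptides of 20 random codons fused to Sup35N. Input and output plasmid inserts were sequenced with Illumina, and sequences with under 100 input reads were excluded. Nucleation score is the DiMSum log enrichment of output over input reads, centred on the mode score of non-aggregating sequences.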

Substance | amyloid nucleation score
GEDTFYSISCYVQMLL | 1.49 ± 0.08
GEGGANVMCRVAGIIR | 1.17 ± 0.17
GEQDDVPRFGYTKACEFLFA | inactive
GETLSTDYLWQPTHA | 0.877 ± 0.58
GEYISEGDCTCRLQRMVVIE | -0.025 ± 0.76
GFCKEYGEVLIIRLSDSCCD | -0.393 ± 0.56
GFFLSNFSVFYKCIRSVVDT | -1.81 ± 0.62
GFHLQMEEVASYFLEIRPFC | 0.02 ± 0.79
GFICMVMDKCYYRGRNFVGV | -0.106 ± 0.44
GFKDCV | 0.263 ± 0.22
GFKILIEFWSATGRLQ | 3.97 ± 0.078
GFPLWSAGNCFALNAGRDAG | 0.777 ± 0.19
GFRTFRRGREWSLE | 0.714 ± 0.34
GFSPSMECHVMEAHLDMRVR | 0.227 ± 0.21
GFSVRVGVMTFDSFDWRVLF | 1.72 ± 0.15
GFSVSARVMIDLPYVEVRFS | 0.07 ± 0.74
GFVINFYLNGVALQRVILAF | inactive
GFWITVESNNTYNRFLDISC | 2.67 ± 0.089
GFWVWMWPRSHCAGGPSLDL | 1.13 ± 0.4
GGCGLH | 0.261 ± 0.4
GGDVNGVSCYGGDVGLSAKG | 0.616 ± 0.25
GGEIESIGFRLGCLSRRSES | -0.383 ± 0.49
GGGYLCRVDYGSIDLTWLKS | -0.559 ± 0.76
GGKFSVIGVGHLLDGEH | 1.14 ± 0.15

Substance | amyloid nucleation score
GGLDLRIMR | 2.41 ± 0.081
GGMYKSMRGWLTGCFVAWVV | 0.369 ± 0.34
GGNCVVNSIFVDLAICYVRR | 9.818 ± 0.057
GGNFLVCYVFDDSCHWIMMY | 4.56 ± 0.086
GGNFYGGEYDMGGGSIRHYG | inactive
GGQEIAYILTSVSSLSNPMW | 3.24 ± 0.1
GGSGSDYLSPSGIVEGYRLG | -0.663 ± 0.54
GGSRTRSCQDRAHCSVGGM | 0.598 ± 0.39
GGSSRQTHW | -0.375 ± 1.1
GGTGVAV | 0.183 ± 0.34
GGTQLRTG | -0.961 ± 1.1
GHAIWSSIVFVGWNLRGDS | 0.065 ± 0.46
GHGKPTGYYGDYENQTVLY | -0.25 ± 0.61
GHSGTVSTQRVCPSSSLWYR | 0.462 ± 0.4
GHVAWSNDSWERESFF | -0.989 ± 0.76
GHVCKFHTLHWR | -1.17 ± 0.61
GICVFCNSYWL | 8.843 ± 0.055
GIDWFTTVMFPAIWVTDILL | 4.593 ± 0.044
GIFCSVGMLTVCLLVRDKLV | inactive
GIIRC | 0.209 ± 0.5
GIIWT | -0.078 ± 0.26
GILYLSLYDFCV | -0.763 ± 1
GISAHHALVTLMLMAIVGHY | 1.55 ± 0.55
GIWITGAWTTSLLCIRTLLG | 0.631 ± 0.43

Substance | amyloid nucleation score
GIWNLQYRREV | 0.596 ± 0.32
GIYFIYLSM | 5.918 ± 0.059
GKFQMS | -0.244 ± 0.56
GKFYQMENSV | -1.27 ± 0.78
GKGNAFVLNFSYGYRCVYHG | 6.398 ± 0.04
GKGSRFRYSIGG | 0.943 ± 0.47
GKIKIEGNDLIGGLQGRLRP | inactive
GKLAARTAINSLFCKLGRRP | -0.066 ± 0.63
GKMTPLLVNQTVSYCMLSSM | 6.273 ± 0.035
GKNMRYFRQTGCH | -0.39 ± 0.21
GKSYPPHLHHDNNKAYRVLP | -0.178 ± 1.1
GKTISNFLGMTTSCEFGR | -0.81 ± 1
GKVGNNTLSVYGMDTT | inactive
GLCYKFVRFSYA | 2.16 ± 0.1
GLGAFSSP | 0.247 ± 0.46
GLGALVGVTLYRRTQQNMWG | 6.313 ± 0.056
GLGLSFDVSVVPQDGYGIRL | -0.492 ± 1.1
GLLEVIF | 0.119 ± 0.74
GLLNMCINCGRLFASPGISG | -0.285 ± 0.35
GLMGLYRRALSTLRRILFMR | -0.072 ± 0.63
GLNQSSLCNGEMGYCRIIWR | -1.03 ± 1.1
GLNYPAIWEARLKG | 0.703 ± 0.29
GLPFLVESMSCPCDLDTVGW | 2.27 ± 0.23
